B1: r16_88_TrROS_Hall (parent)
chain: EVIELKIKFKTPEQREKLKEIAKKLNAEVVEEKDGEVIIRFKTPEQAERALKEAEKLGAEVEL
B2: HEEH_KT_rd6_0790 (parent)
chain: SEEEEEEWRRAKERGEEIIILGILWKPNDEEAERRIKEALRRV

Variants of: B1
Assay: folding stability dG (cDNA display proteolysis); higher = more stable
Conditions: PBS, room temperature

Variant	folding stability dG
P12E	4.46 kcal/mol
K17E	4.3 kcal/mol
I21G	3.77 kcal/mol
A50R	2.59 kcal/mol
K24S	4.47 kcal/mol
K33R	4.43 kcal/mol
E60G	3.81 kcal/mol
G58W	4.21 kcal/mol
L51C	4.41 kcal/mol
A27M	4.42 kcal/mol
A27R	3.72 kcal/mol
A59G	4.18 kcal/mol
E55Q	4.48 kcal/mol
A22S	4.19 kcal/mol
E31M	4.37 kcal/mol

Variants of: B2
Assay: as above
Conditions: PBS, room temperature

Variant	folding stability dG
I20M	1.28 kcal/mol
I20S	0.816 kcal/mol
I20E	0.692 kcal/mol
I20C	2.07 kcal/mol
I20N	0.804 kcal/mol
I20R	1.08 kcal/mol
K37S	1.85 kcal/mol
K37P	0.399 kcal/mol
K37M	2.23 kcal/mol
E3I	2.32 kcal/mol
R14M	1.88 kcal/mol
R14E	1.68 kcal/mol
R14F	1.67 kcal/mol
L21T	1.04 kcal/mol
L21M	2.35 kcal/mol
L21D	1.04 kcal/mol
I19W	2.53 kcal/mol
I19M	2.01 kcal/mol
I19D	0.997 kcal/mol
I19G	1.01 kcal/mol
K26A	1.87 kcal/mol
K26R	2.4 kcal/mol
K26I	2.02 kcal/mol
K26Y	1.51 kcal/mol
K26D	1.26 kcal/mol
K26F	1.51 kcal/mol

Variant	folding stability dG
R41D	1.79 kcal/mol
R41T	1.81 kcal/mol
R41N	1.97 kcal/mol
R41A	2.07 kcal/mol
A39K	1.79 kcal/mol
A39R	1.88 kcal/mol
R42D	1.56 kcal/mol
R42L	2.09 kcal/mol
R42K	2.14 kcal/mol
R42S	1.92 kcal/mol
E38K	1.34 kcal/mol
E38A	1.94 kcal/mol
E38D	2.06 kcal/mol
E38Q	1.93 kcal/mol
K12F	2.13 kcal/mol
K12I	1.97 kcal/mol
K12H	1.96 kcal/mol
K12L	1.86 kcal/mol
I23M	1.08 kcal/mol
I23E	0.981 kcal/mol
I23R	0.853 kcal/mol
L40H	1.26 kcal/mol
L40I	1.97 kcal/mol
L40E	0.814 kcal/mol
L40D	0.532 kcal/mol
L40V	1.25 kcal/mol

Variant	folding stability dG
E33V	1.52 kcal/mol
E33Q	1.31 kcal/mol
E33T	1.98 kcal/mol
E33H	1.3 kcal/mol
A11R	1.62 kcal/mol
A11M	1.94 kcal/mol
E16L	2.28 kcal/mol
E16T	1.94 kcal/mol
G15N	1.9 kcal/mol
G15T	1.18 kcal/mol
R34H	1.73 kcal/mol
R34Y	1.87 kcal/mol
I18T	1.84 kcal/mol
I18E	0.975 kcal/mol
I18K	1.68 kcal/mol
I18P	0.472 kcal/mol
R9K	1.96 kcal/mol
R9P	0.985 kcal/mol
R9L	2.11 kcal/mol
R9S	1.62 kcal/mol
G22S	1.19 kcal/mol
G22I	2.28 kcal/mol
G22K	0.815 kcal/mol
G22L	2.12 kcal/mol
I36D	0.894 kcal/mol
I36A	1.11 kcal/mol

Variant	folding stability dG
W8M	1.34 kcal/mol
W8G	0.818 kcal/mol
W8C	1.67 kcal/mol
W8H	0.824 kcal/mol
W8I	1.48 kcal/mol
W8L	1.95 kcal/mol
W8S	0.793 kcal/mol
R35W	1.56 kcal/mol
R35A	2.21 kcal/mol
R35L	2.19 kcal/mol
R35F	1.38 kcal/mol
E6L	1.93 kcal/mol
E6Y	2.08 kcal/mol
S1F	2.71 kcal/mol
S1P	2.23 kcal/mol
S1W	2.77 kcal/mol
E17L	1.89 kcal/mol
E17P	2.5 kcal/mol
E17A	2.12 kcal/mol
E7Y	2.19 kcal/mol
E7F	2.91 kcal/mol
E7V	2.09 kcal/mol
E31I	1.8 kcal/mol
E31P	0.967 kcal/mol
E31G	1.61 kcal/mol
E31S	1.69 kcal/mol

Variant	folding stability dG
E31H	1.64 kcal/mol
E2F	2.7 kcal/mol
E2C	2.63 kcal/mol
E2H	2.52 kcal/mol
E30R	1.81 kcal/mol
E30V	2.04 kcal/mol
E30A	2.03 kcal/mol
E30M	2.24 kcal/mol
E30F	2.05 kcal/mol
W25R	0.67 kcal/mol
W25F	1.4 kcal/mol
W25T	0.615 kcal/mol
W25M	0.967 kcal/mol
W25I	1.01 kcal/mol
W25P	0.549 kcal/mol
N28E	1.84 kcal/mol
N28R	1.71 kcal/mol
N28L	1.61 kcal/mol
N28M	1.77 kcal/mol
N28F	2.1 kcal/mol
N28A	1.67 kcal/mol
E13I	2.04 kcal/mol
P27M	1.18 kcal/mol
P27D	1.35 kcal/mol
P27E	1.37 kcal/mol
D29W	1.55 kcal/mol

Variant	folding stability dG
D29N	1.39 kcal/mol
E4A	2.68 kcal/mol
E4T	2.29 kcal/mol
A32E	1.25 kcal/mol
E5K	1.36 kcal/mol
E5L	2.17 kcal/mol
E5M	2.1 kcal/mol
E5R	1.47 kcal/mol
E5S	1.73 kcal/mol
E5T	1.79 kcal/mol
L24N	1.34 kcal/mol
L24T	1.75 kcal/mol
L24M	1.79 kcal/mol
V43F	2.5 kcal/mol
V43T	1.88 kcal/mol
V43P	1.84 kcal/mol
R10G	1.56 kcal/mol
R10T	1.55 kcal/mol
R10Q	1.81 kcal/mol
R10A	1.82 kcal/mol
R10K	2.04 kcal/mol
R10W	1.77 kcal/mol
